Source: US20110177578, “APTAMER AGAINST IL-17 AND USE THEREOF” (The University of Tokyo, published 2011)

T1: IL-17 (IL-17A) (Homo sapiens, UniProt Q16552 Q16552:24-155)
T1 sequence: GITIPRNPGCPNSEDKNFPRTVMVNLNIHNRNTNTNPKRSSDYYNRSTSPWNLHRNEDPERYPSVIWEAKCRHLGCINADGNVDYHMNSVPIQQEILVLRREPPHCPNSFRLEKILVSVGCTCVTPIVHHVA

T2: IL-17F (Homo sapiens, UniProt Q96PD4 Q96PD4:31-163)
T2 sequence: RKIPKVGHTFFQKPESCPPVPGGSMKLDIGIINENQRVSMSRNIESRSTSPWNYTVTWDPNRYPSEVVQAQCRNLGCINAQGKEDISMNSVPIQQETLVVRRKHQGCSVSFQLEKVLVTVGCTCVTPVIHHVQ

B1: SEQ 1 (Apt1) (ssRNA)
RNA: GGGAGCAGGAGAGAGGUCAGAUGGGCAGCAGAGGAUAGCGAAGUCAUUGAGCGCCUAUGCGUGCUAGUGUGA
modifications: 2'-F pyrimidines
B2: SEQ 2 (ssRNA)
RNA: GGGAGCAGGAGAGAGGUCAGAUGGUGCACAUGGGAUAGCGAAGUCAUUGAGCGCCUAUGCGUGCUAGUGUGA
modifications: 2'-F pyrimidines
B3: SEQ 33 (ssRNA)
RNA: GGGAGCAGGAGAGAGGUCAGAUGGAGGAGCCAGUGAUCGUUGACCUCAAUGCACCUAUGCGUGCUAGUGUGA
modifications: 2'-F pyrimidines
B4: SEQ 34 (ssRNA)
RNA: GGGAGCAGGAGAGAGGUCAGAUGGAGGAGACAGUGAUCGUUGACCCACCGGGUCCUAUGCGUGCUAGUGUGA
modifications: 2'-F pyrimidines
B5: SEQ 35 (ssRNA)
RNA: GGGAGCAGGAGAGAGGUCAGAUGGAGGAGGCAGUAAUCGUUGACUGGUAAACCCCUAUGCGUGCUAGUGUGA
modifications: 2'-F pyrimidines
B6: SEQ 36 (ssRNA)
RNA: GGGAGCAGGAGAGAGGUCAGAUGUAUAGCGAAGUCAUUGAGCGACAAAGCCGGCCUAUGCGUGCUAGUGUGA
modifications: 2'-F pyrimidines
B7: SEQ 37 (ssRNA)
RNA: CAGAUGGGCAGCAGAGGAUAGCGAAGUCAUUGAGCGCCUAUGCGUGCUAGUGUG
modifications: 2'-F pyrimidines
B8: SEQ 3 (ssRNA)
RNA: GGGAGCAGGAGAGAGGUCAGAUGUGUAAGGUCGGAAGUCAUGAACGGCCCGGACCUAUGCGUGCUAGUGUGA
modifications: 2'-F pyrimidines
B9: SEQ 43 (ssRNA)
RNA: AGAGGUCAGAUGGUCUAGCCGGAGGAGUCAGUAAUCGGUAGACCUAUGCGUG
modifications: 2'-F pyrimidines
B10: SEQ 4 (ssRNA)
RNA: GGGAGCAGGAGAGAGGUCAGAUGCUAUAGCGAAGUCAUUGAGCGAGACAUAGGCCUAUGCGUGCUAGUGUGA
modifications: 2'-F pyrimidines
B11: SEQ 5 (ssRNA)
RNA: GGGAGCAGGAGAGAGGUCAGAUGAGCGCCAUAGGGUAGAGAAGCCAUUGAUCACCUAUGCGUGCUAGUGUGA
modifications: 2'-F pyrimidines
B12: SEQ 6 (ssRNA)
RNA: GGGAGCAGGAGAGAGGUCAGAUGGUGAUGCAUAGGAGUGGAGUCAGAUAUAGCCCUAUGCGUGCUAGUGUGA
modifications: 2'-F pyrimidines
B13: SEQ 29 (ssRNA)
RNA: GGGAGCAGGAGAGAGGUCAGAUGCGAUAGCGAAGUCAUUGAGCGCGUGUCCAACCUAUGCGUGCUAGUGUGA
modifications: 2'-F pyrimidines
B14: SEQ 30 (ssRNA)
RNA: GGGAGCAGGAGAGAGGUCAGAUGGUCUAGCCGGAGGAGUCAGUAAUCGGUAGACCUAUGCGUGCUAGUGUGA
modifications: 2'-F pyrimidines
B15: SEQ 31 (ssRNA)
RNA: GGGAGCAGGAGAGAGGUCAGAUGGAAGUGGAGUCAGAUAUAGCAAUAUUAUGACCUAUGCGUGCUAGUGUGA
modifications: 2'-F pyrimidines
B16: SEQ 32 (ssRNA)
RNA: GGGAGCAGGAGAGAGGUCAGAUGGGCAGCGGAGGAUGGCGAAGUCAUUGGGCGCCUAUGCGUGCUGGUGGAG
modifications: 2'-F pyrimidines

Legend:
IL-17 (IL-17A) [1] = target: T1, IL-17 (IL-17A); experiment: SPR; 3' A16-tailed RNA on dT16 SA chip; solution A pH 7.6, Ca/Mg, 0.1 mg/mL tRNA; details: tags: Peprotech; chain copies: 2
Method: (§1) The binding activities for IL-17 of the nucleic acids shown by SEQ ID NOS:1-6 and 29-36 were evaluated by the surface plasmon resonance method. The measurements were taken using BIAcore 2000. The SA chip was used as the sensor chip, which had streptavidin immobilized thereon. Bound thereto was about 600 RU of a 16-nucleotide Poly dT with biotin bound to the 5′ end thereof. […] 20 μl, of human IL-17 for analyte, prepared at 0.5 was injected, with the addition of 0.1 mg/mL tRNA to lessen nonspecific adsorption. Solution A was used as a running buffer. […] Here, 30N refers to the nucleic acid pool used for the first round of SELEX, comprising a 30-nucleotide random sequence. As an example, a sensorgram showing a status of the binding of the aptamer shown by SEQ ID NO:1 (Apt1) and human IL-17 is shown in FIG. 7. From the above, it was shown that the nucleic acids shown by SEQ ID NOS:1-6 and 29-36 are aptamers that bind to IL-17.

IL-17F = target: T2, IL-17F; experiment: SPR; tRNA added; details: tags: R&D Systems 1335-INS/CF; chain copies: 2
Method: as §1
Whether the IL-17 aptamers shown by SEQ ID NOS:1-6 and 29-36 bind to IL-17F, which belongs to the same family, was determined by the surface plasmon resonance method. The amino acid sequence homology between IL-17 and IL-17F is 50%. The experiment was performed using IL-17F produced by R&D Company (1335-INS/CF), while in a state wherein tRNA was added to lessen nonspecific adsorption as described above.

IL-17 (IL-17A) [2] = target: T1, IL-17 (IL-17A); experiment: SPR; solution A, tRNA; details: tags: Peprotech; chain copies: 2
Method: as §1

IL-17 (IL-17A) [3] = target: T1, IL-17 (IL-17A); experiment: SPR; same as Example 1; details: tags: Peprotech; chain copies: 2
IL-17 (IL-17A) [4] = target: T1, IL-17 (IL-17A); experiment: SPR; details: tags: Peprotech; chain copies: 2

Binder | binding result (IL-17F) | binding result (IL-17 (IL-17A) [2]) | further results
B1 | no binding |  | binding result (IL-17 (IL-17A) [1]): binds
B2 | no binding | binds | 
B3 | no binding | binds | 
B4 | no binding | binds | 
B5 | no binding | binds | 
B6 | no binding | binds | 
B7 |  |  | binding result (IL-17 (IL-17A) [3]): binds
GCAGCAGAGGAUAGCGAAGUCAUUGAGCGCCUAUGCGUGC (ssRNA, 2'-F pyrimidines) [SEQ 38] |  |  | binding result (IL-17 (IL-17A) [3]): binds
GCAGAGGAUAGCGAAGUCAUUGAGCGCCUAUGC (ssRNA, 2'-F pyrimidines) [SEQ 39] |  |  | binding result (IL-17 (IL-17A) [3]): binds
GGAUAGCGAAGUCAUUGAGCGCC (ssRNA, 2'-F pyrimidines) [SEQ 40] |  |  | binding result (IL-17 (IL-17A) [3]): binds
GGGGAUAGCGAAGUCAUUGAGCGCCCC (ssRNA, 2'-F pyrimidines) [SEQ 41] |  |  | binding result (IL-17 (IL-17A) [3]): binds
B8 | no binding | binds | 
GUGCACAUGGGAUAGCGAAGUCAUUGAGCGCCUAUGCGUGC (ssRNA, 2'-F pyrimidines) [SEQ 42] |  |  | binding result (IL-17 (IL-17A) [3]): binds
B9 |  |  | binding result (IL-17 (IL-17A) [3]): binds
GGUCUAGCCGGAGGAGUCAGUAAUCGGUAGACC (ssRNA, 2'-F pyrimidines) [SEQ 44] |  |  | binding result (IL-17 (IL-17A) [3]): binds
GGAUAGCGAAGUCAUCGAGCGCC (ssRNA, 2'-F pyrimidines) [SEQ 45] |  |  | binding result (IL-17 (IL-17A) [4]): binds
GGAUAGCGAAGUCAUUGAGCACC (ssRNA, 2'-F pyrimidines) [SEQ 46] |  |  | binding result (IL-17 (IL-17A) [4]): binds
GGAUAGAGAAGUCAUUGAGCGCC (ssRNA, 2'-F pyrimidines; 2'-OMe at a7) [SEQ 47] |  |  | binding result (IL-17 (IL-17A) [4]): binds
GGAUAGCGAAGACAUUGAGCGCC (ssRNA, 2'-F pyrimidines; 2'-OMe at a12) [SEQ 48] |  |  | binding result (IL-17 (IL-17A) [4]): binds
GGAUAGCGAAGUCAUUGAGCGCC (ssRNA, 2'-F pyrimidines; 2'-OMe at a3) [SEQ 40-2] |  |  | binding result (IL-17 (IL-17A) [4]): binds
GGAUAGCGAAGUCAUUGAGCGCC (ssRNA, 2'-F pyrimidines except c7; 2'-OMe at c7) [SEQ 40-3] |  |  | binding result (IL-17 (IL-17A) [4]): binds
GGAUAGCGAAGUCAUUGAGCGCC (ssRNA, 2'-F pyrimidines; 2'-OMe at g19) [SEQ 40-4] |  |  | binding result (IL-17 (IL-17A) [4]): binds
B10 | no binding | binds | 
B11 | no binding | binds | 
B12 | no binding | binds | 
B13 | no binding | binds | 
B14 | no binding | binds | 
B15 | no binding | binds | 
B16 | no binding | binds | 
